# Laboratory results published in patent US20200292534A1.
# T1: NLpoly11S
# T1 chain: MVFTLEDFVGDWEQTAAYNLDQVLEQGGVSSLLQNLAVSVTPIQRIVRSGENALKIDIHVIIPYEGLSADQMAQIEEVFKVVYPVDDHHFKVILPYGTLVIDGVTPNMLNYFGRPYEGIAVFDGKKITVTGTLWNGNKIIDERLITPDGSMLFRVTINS
# Biological target: T1, NLpoly11S
# Assay: luminescence complementation titration, one-site specific binding fit
Bmax,Kd [µM],Binder
383000,1420,VEGYRLFEEAS (modifications not checked) [array2.80]
43400,0.563,VEGYRLFKKIL (modifications not checked) [array2.82]
20800,1.59,VEGYRLFKKAL (modifications not checked) [array2.83]
7830,1.41,VEGYRLFKKEL (modifications not checked) [array2.84]
3930,2.57,VTGYRLFKEAS (modifications not checked) [array2.8]
31400,10.3,VEGYRLFKQIL (modifications not checked) [array2.85]
2300,2.27,VEGYRLFKQAL (modifications not checked) [array2.86]
1790,12.6,VEGYRLFKQEL (modifications not checked) [array2.87]
9830,17.8,VEGYRLFKEIL (modifications not checked) [array2.88]
5570,42.4,VEGYRLFKEAL (modifications not checked) [array2.89]
12200,101,VEGYRLFKEEL (modifications not checked) [array2.90]
50500,2.08,VEGYRLFQKIL (modifications not checked) [array2.91]
12300,2.02,VEGYRLFQKAL (modifications not checked) [array2.92]
4090,1.69,VEGYRLFQKEL (modifications not checked) [array2.93]
2280,9.39,VEGYRLFQQIL (modifications not checked) [array2.94]
1450,3.86,VTGYRLFKEES (modifications not checked) [array2.9]
38200,18.8,VEGYRLFQQAL (modifications not checked) [array2.95]
105000,99.4,VEGYRLFQQEL (modifications not checked) [array2.96]
2700,99.9,VEGYRLFQEAL (modifications not checked) [array2.98]
35000,10.6,VEGYRLFEKIL (modifications not checked) [array2.100]
6370,12.6,VEGYRLFEKAL (modifications not checked) [array2.101]
962,5.79,VEGYRLFEKEL (modifications not checked) [array2.102]

Bmax,Kd [µM],Binder
9880,336,VEGYRLFEQAL (modifications not checked) [array2.104]
113000,0.0812,VTGYRLFQKIS (modifications not checked) [array2.10]
80900,0.749,VTGYRLFQKAS (modifications not checked) [array2.11]
17200,0.417,VTGYRLFQKES (modifications not checked) [array2.12]
19400,0.876,VTGYRLFQQIS (modifications not checked) [array2.13]
4350,1.11,VTGYRLFQQAS (modifications not checked) [array2.14]
5200,7.49,VTGYRLFQQES (modifications not checked) [array2.15]
104000,0.241,VTGYRLFKKAS (modifications not checked) [array2.2]
1320,2.56,VTGYRLFQEIS (modifications not checked) [array2.16]
5110,67.3,VTGYRLFQEES (modifications not checked) [array2.18]
123000,0.605,VTGYRLFEKIS (modifications not checked) [array2.19]
36300,1.79,VTGYRLFEKAS (modifications not checked) [array2.20]
8620,1.49,VTGYRLFEKES (modifications not checked) [array2.21]
121000,10.8,VTGYRLFEQIS (modifications not checked) [array2.22]
3820,4.17,VTGYRLFEQAS (modifications not checked) [array2.23]
1830,7.83,VTGYRLFEQES (modifications not checked) [array2.24]
141000,0.0766,VTGYRLFKKIL (modifications not checked) [array2.28]
98600,0.276,VTGYRLFKKAL (modifications not checked) [array2.29]
56000,0.773,VTGYRLFKKES (modifications not checked) [array2.3]
51100,0.671,VTGYRLFKKEL (modifications not checked) [array2.30]
115000,2.99,VTGYRLFKQIL (modifications not checked) [array2.31]
34900,3.56,VTGYRLFKQAL (modifications not checked) [array2.32]

Bmax,Kd [µM],Binder
8550,1.95,VTGYRLFKQEL (modifications not checked) [array2.33]
21900,4.41,VTGYRLFKEIL (modifications not checked) [array2.34]
5550,5.15,VTGYRLFKEAL (modifications not checked) [array2.35]
1720,7.79,VTGYRLFKEEL (modifications not checked) [array2.36]
127000,0.362,VTGYRLFQKIL (modifications not checked) [array2.37]
72800,0.975,VTGYRLFQKAL (modifications not checked) [array2.38]
33100,2.48,VTGYRLFQKEL (modifications not checked) [array2.39]
104000,0.746,VTGYRLFKQIS (modifications not checked) [array2.4]
66300,122,VTGYRLFQQIL (modifications not checked) [array2.40]
3470,3.97,VTGYRLFQQAL (modifications not checked) [array2.41]
14200,19,VTGYRLFQQEL (modifications not checked) [array2.42]
9410,17.2,VTGYRLFQEIL (modifications not checked) [array2.43]
4230,16,VTGYRLFQEAL (modifications not checked) [array2.44]
14300,35.4,VTGYRLFQEEL (modifications not checked) [array2.45]
219000,1.92,VTGYRLFEKIL (modifications not checked) [array2.46]
34500,1.81,VTGYRLFEKAL (modifications not checked) [array2.47]
10900,2.44,VTGYRLFEKEL (modifications not checked) [array2.48]
99200,124,VTGYRLFEQIL (modifications not checked) [array2.49]
17100,40.4,VTGYRLFEQAL (modifications not checked) [array2.50]
46200,85,VTGYRLFEQEL (modifications not checked) [array2.51]
